Positions count from the first letter of the chain named.
B1: Hu-1 (antibody, V domains shown)
VH: QVQLVESGGGVVQPGRSLRLSCAASGFTFSNYGMYWVRQAPGKGLEWVAVIWYDGSNKNYADSVKGRFTISRDNSKNTLNLQMNSLRAEDTAVYYCARRGYDILTGYDYYGMDVWGQGTTVTVSA
VL: QTVVTQEPSFSVSPGGTVTLTCGLSSGSVSTSYYPSWYQQTPGQAPRTLIYRTNTRSSGVPDRFSGSILGNKAALTISGAQAPDESNYYCVLYMGSGIWVFGGGTKLTVL
B2: Hu-8 (antibody, V domains shown)
VH: QVQLVESGGGVVQPGRSLRLSCAASGFTFSSYGMHWVRQAPGKGLEWVAVIWYDGSNKKYADSVKGRFTISRDNSKNTLYLQMNSLRAEDTAVYYCARRYDVLTAYPYYFYYNMDVWGPGTTVTVSS
VL: B1 VL with S25N, R52S, S78T, P83D, N87D
B3: Hu-4 (antibody, V domains shown)
VH: B1 VH with N31F, Y35H, A61V, N80Y, G100N, Y107R, A125S
VL: B1 VL with S25N, R52S, S78T, P83D, E85D, N87D
B4: Hu-12 (antibody, V domains shown)
VH: EVRLLESGGGLVQPGGSLRLSCIASGFTFSSYVMSWVRQAPGKGLEWVSGISGSGGSTYYADSVKGRFTISRDNSKNTLYLQISSLRAEDTAVYYCTKAPTLWWFFDLWGRGTLVTVSS
VL: DIQVTQSPSFLSASVGDRVTITCRASQGIRSYLAWYQQKPGKAPKLLIYAASTLQSGVPSRFSGSGSGTEFTLTISSLLPEDFATYYCQQLNSYPLTFGGGTKVEIK
B5: Hu-7 (antibody, V domains shown)
VH: EVQLLESGGGLVQPGGSLRLSCAASGFTFSSYVMSWVRQAPGKGLEWVSTISGSGGSTYYADSVKDRFTISRDNSKNTLYLQMNSLRAEDTAVYYCGKPLLGGTGLWDYWGQGTLVTVSS
VL: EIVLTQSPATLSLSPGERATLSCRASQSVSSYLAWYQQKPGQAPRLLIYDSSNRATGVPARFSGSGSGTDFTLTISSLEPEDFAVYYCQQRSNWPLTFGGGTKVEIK
B6: Hu-11 (antibody, V domains shown)
VH: QVHLVQSGAEVKKPGASVKVSCKASGYTFTSYYIHWVRQAPGQGLEWMGIINPSGGNTIYAQKFQGRVTMTRDTSTTTVYVELSSLRSEDTAVYYCARDHYDILTGYYPLYYGMDVWGQGTTVTVSS
VL: SYELTQPLSVSVALGQTARITCGGNNIGSKNVHWYQQKPGQAPVLVIYRDSNRPSGIPERFSGSKSGNTATLTISRAQAGDEADYYCQVWDSSTAVFGGGTQLTAL
B7: Hu-13 (antibody, V domains shown)
VH: EVQLLESGGGLVQPGGSLRVACAASGFPLRSYAMSWVRQAPGKGLEWVSVTSGSGGSTYYADSVKGRFTISRDNSKSTVYLQMNSLRAEDTAVYYCAKDRGYDILTGYYDYFYGMDVWGQGTTVTVSS
VL: DIQMTQSPSSLSASVGDRVTITCRASQGIRNDLGWFQQKPGKAPKRLIYAASSLQSGVPSRFSGSGSGTEFTLTISSLQPEDFATYYCLQHNSYPYTFGQGTKLEIK
B8: Hu-10 (antibody, V domains shown)
VH: EVQLSESGGALVQPGESLRLSCAASGFTFSSYAMTWVRQAPGKGLEWVSSLSGSGRSTYYAASIKGRFTISRDNSKNTLYLQMSSLRAEDTAIYYCAKSLSYYHYYFDYWGQGTLVTVSS
VL: DIQLTQSPSFLSASVGDRVPITCRASQDISNYLAWYQQKPGKAPKLLIYSASTLQSGVPSRFSGSGSGTEFTLTISSLQPEDFASYHCQQVKTYPLTFGGGTKVEIK
B9: Ms19 (antibody, V domains shown)
VH: EVQLQQSGPELVKPGASVKMSCKASGYTFTSYVIHWVKQKPGQGLEWIGYINPYNDGSKYNEKFKGKATLTSDKSSSTAYMELSSLTSEDSAVYYCAREGYGKRNALDYWGQGTSVTVSS
VL: DIVMTQSPSSLSVSAGERVTMSCKSSQSLLNSGNQKNYLAWYQQKPGQPPKLLIYGASTRESGVPDRFTGSGSGTDFTLIISSVQVEDLAVYYCQNDHFYPLTFGAGTKLELK
B10: Ms15 (antibody, V domains shown)
VH: EVQLQQSGPELVRPGASVKMSCRASGYTFTNYIIHWVKQKPGQGLEWIGYFNPYNDGTKYNEIFKDKATLTSDKSSSTAYMELRSLTSEDSAVYYCAKLRQERIAYWGQGTLVTVSA
VL: DIQMNQSPSSLSASLGDTITITCHVSQNIDVWLSWYQQKPGNIPKLLIYKASNLHTGVPSRFSGSGSGTGFTLTISSLQPEDIATYYCQQGQSYPLTFGAGTKLELK
B11: Ms17 (antibody, V domains shown)
VH: B10 VH with R13K, R23K, T58I, K59E, N61S, I63K, D66G, R84S, A97S, I104F
VL: B10 VL with V25A, D30N
B12: Ms22 (antibody, V domains shown)
VH: QVQLKESGPGLVAPSQSLSITCTVSGFSLTSNGVHWVRQPPGKGLEWLGVIWAGGSTNYNSALMSRLSISKDNSKSQVFLKMNSLQTHDTAMYYCARDKYDGTGFDYWGQGTTLTVSS
VL: QIVLTQSPAIMSASPGEKVTMTCSASSSVSNMYWYQQKPGSSPRLLIYDTSNLASGVPVRFSGSGSGTSYSLTISRMEAEDAATYYCQQWSSYPYTFGGGTKLEIK
B13: Ms18 (antibody, V domains shown)
VH: QVQLKESGPGLVAPSQSLSITCTVSGFSLISYGVHWVRQPPGKGLEWLGVIWAGGNTNYNSALMSRLSISKDNSKSQVFLKMNSLQTDDTAMYYCARVYYGNSFDYWGQGTTLTVSS
VL: DIVMTQSPSSLTVTAGEKVTMSCKSSQSLLNSGNQKNYLTWYQQKPGQPPKLLIYWASTRQSGVPDRFTGSGSGTDFSLTISSVQAEDLAVYYCHNDYTYPLTFGAGTKLELK
B14: Ms21 (antibody, V domains shown)
VH: DVQLVESGGGLVQPGGSRKLSCAASGFTFSTFGMHWVRQAPEKGLEWVAFINGDSSSIYYADTVKGRFTISRDNPKNILFLQMTSLRSEDTAMYYCARFARGNSFDYWGQGTTLTVSS
VL: B13 VL with L30F, G47W, Q61E, S78T, S82T, A86T, H95Q, N96I, D97G
B15: Ms20 (antibody, V domains shown)
VH: EIQLQQSGPELMKPGASVKISCKASGYSFTSYYMHWVKQSHGKSLEWIGYFDPYNGGTNYNQKFKGKATLTADKSSSTAYMHLSSLTSEDSAVYYCACYRFFAVWGAGTTVTVSS
VL: B13 VL with Q61E, S78T, H95Q, T99S

These binders were tested against human claudin 18 isoform 2 (claudin 18.2) (human) (assay: cell-based or functional assay).

| ADCC EC50, CHO-18.2 target cells (mouse FcγRIV reporter bioluminescence) [nM] | Binder |
| --- | --- |
| 0.77 | B1 |
| 1.42 | B2 |
| 2.39 | B3 |
| 2.26 | B4 |
| 3.52 | B5 |
| 1.51 | B6 |
| 1.17 | B7 |
| 1.25 | B8 |

Target: human claudin 18 isoform 2 (claudin 18.2) (human)
Experiment: cell-based or functional assay
Remark: another data set of the same source

| Binder | endocytosis derived cell toxicity EC50, CHO-18.2 cells (anti-IgG Fc-MMAF co-internalization) [nM] |
| --- | --- |
| B9 | 1.36 |
| B10 | 1.15 |
| B11 | 0.81 |
| B12 | 1.61 |
| B13 | 1.39 |
| B14 | 0.95 |
| B15 | 1.07 |

Target: human claudin 18 isoform 2 (claudin 18.2) (human)
Experiment: cell-based or functional assay
Remark: another data set of the same source

| Binder | endocytosis derived cell toxicity EC50, CHO-18.2 cells (anti-IgG Fc-MMAF co-internalization) [nM] |
| --- | --- |
| B1 | 1.61 |
| B2 | 1 |
| B3 | 1.55 |
| B4 | 2.01 |
| B5 | 1.65 |
| B6 | 1.31 |
| B7 | 2.16 |
| B8 | 0.85 |

These binders were tested against T1, human claudin 18 isoform 1 (claudin 18.1) (human, UniProt P56856 1-261) (assay: imaging, CHO-CLDN18.1 cells, single concentration (FIG. 3A)).
T1 construct: Recombinant on transfected CHO cells (CHO-CLDN18.1); also called CLDN18.1
Description: (§1) The specific cellular binding affinity of anti-Claudin18.2 antibodies was tested on CHO-CLDN18.2 (transfected CHO cell expressing recombinant human CLDN18.2) and CHO-CLDN18.1 (transfected CHO cell expressing recombinant human CLDN18.1) cells. The cells were plated in complete media containing F12 with 10% FBS, then incubated overnight at 37° C., anti-Claudin18.2 antibodies were serial diluted and added to the assay plates, incubated at 4° C. for 2 hours, followed by fixing cells and further staining the cells for 30 minutes with Alexa Fluor® 488 Goat Anti-Human IgG (H+L) secondary antibody, invitrogen Cat #A-11013 for detection. The binding was assessed by imaging the cells and quantifying the fluorescence intensity using a Biotek Cytation.

T1 sequence (P56856 whole entry, canonical isoform): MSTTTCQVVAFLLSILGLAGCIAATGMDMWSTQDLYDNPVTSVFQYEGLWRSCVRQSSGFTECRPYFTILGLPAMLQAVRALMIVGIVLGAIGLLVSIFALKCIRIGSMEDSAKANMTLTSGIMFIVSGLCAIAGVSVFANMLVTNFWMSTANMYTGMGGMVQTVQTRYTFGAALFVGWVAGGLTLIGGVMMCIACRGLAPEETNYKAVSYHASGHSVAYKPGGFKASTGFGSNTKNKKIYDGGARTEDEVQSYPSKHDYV

| binding result | Binder |
| --- | --- |
| no binding (tested: 10 µg/ml) | B9 |
| no binding (tested: 10 µg/ml) | B10 |
| no binding (tested: 10 µg/ml) | B11 |
| no binding (tested: 10 µg/ml) | B12 |
| no binding (tested: 10 µg/ml) | B13 |
| no binding (tested: 10 µg/ml) | B14 |
| no binding (tested: 10 µg/ml) | B15 |

The binders below were run against T2, human claudin 18 isoform 2 (claudin 18.2) (human) (assay: immunofluorescence imaging, CHO-CLDN18.2 cells, serial dilution).
T2 construct: Recombinant on transfected CHO cells (CHO-CLDN18.2) or endogenous on tumor cell lines PATU8988S, NUGC-4, KATOIII; the cell line is named under assay; also called CLDN18.2
Description: as §1

| EC50 [nM] | Binder |
| --- | --- |
| 3.6 | B1 |
| 3.7 | B2 |
| 5.2 | B3 |
| 1.2 | B4 |
| 1 | B5 |
| 2.3 | B9 |
| 17 | B6 |
| 1.8 | B10 |
| 1.4 | B11 |
| 5.6 | B7 |
| 2.6 | B12 |
| 1.3 | B13 |
| 1.5 | B14 |
| 1.3 | B15 |
| 1.5 | B8 |

The binders below were run against T2, human claudin 18 isoform 2 (claudin …) (assay: imaging, PATU8988S cells (endogenous CLDN18.2); ++++ = EC50 less than 2 nM).
Description: (§2) Tumor cells were plated in complete media containing RPMI1640 with +10% FBS, then incubated overnight at 37° C., Claudin18.2 antibodies were serial diluted and added to the assay plates, incubated at 4° C. for 2 hours, followed by fixing cells and further staining the cells for 30 minutes with Alexa Fluor® 488 Goat Anti-Human IgG (H+L) secondary antibody (invitrogen Cat #A-11013) for detection. The binding was assessed by imaging the cells and quantifying the fluorescence intensity using a Biotek Cytation.

| EC50 [nM] | Binder |
| --- | --- |
| < 2 | B4 |
| < 2 | B5 |
| < 2 | B8 |

What follows are binders tested against T2, human claudin 18 isoform 2 (claudin …) (assay: imaging, PATU8988S cells (endogenous CLDN18.2); +++ = EC50 between 2 nM and 20 nM).

| EC50 [nM] | Binder |
| --- | --- |
| 2 to 20 | B9 |
| 2 to 20 | B10 |
| 2 to 20 | B11 |
| 2 to 20 | B12 |
| 2 to 20 | B13 |
| 2 to 20 | B14 |
| 2 to 20 | B15 |

These binders were tested against T2, human claudin 18 isoform 2 (claudin …) (assay: imaging, PATU8988S cells (endogenous CLDN18.2); ++ = EC50 between 20 nM and 100 nM).
Description: as §2

| EC50 [nM] | Binder |
| --- | --- |
| 20 to 100 | B1 |
| 20 to 100 | B2 |
| 20 to 100 | B3 |
| 20 to 100 | B6 |
| 20 to 100 | B7 |

These binders were tested against T1, human claudin 18 isoform 1 (claudin …) (assay: immunofluorescence imaging on CHO cells expressing human CLDN18.1, antibody at 10 µg/ml).
Description: as §1

| binding result | Binder |
| --- | --- |
| no binding (tested: 10 µg/ml) | B1 |
| no binding (tested: 10 µg/ml) | B3 |
| no binding (tested: 10 µg/ml) | B4 |
| no binding (tested: 10 µg/ml) | B5 |
| no binding (tested: 10 µg/ml) | B8 |

— patent US20230067757A1 (NOVAROCK BIOTHERAPEUTICS, published 2023)
